From patent publication US12214046B2, “Protein-loaded PLGA nanospheres” (West Virginia University Board of Governors on behalf of …, priority 2019, dated 2025)

Assay: In vivo induction of free IL-12 toxicity in healthy mice (blood immunophenotyping by flow cytometry)
Design: species or system BALB/c mice
Details: 100 ng or 100 ug retro-orbital, baseline vs 48 h
Procedure: Red blood cells were lysed with Red Blood Cell (RBC) Lysis Solution (Miltenyi Biotec, Auburn, CA). Single cell suspensions were split and incubated with optimized lymphoid (L) and myeloid (M) antibody panels according to the manufacturer's instructions: a minimum of 1×104 events were analyzed for each sample.
Two groups of four BALB/c mice (two female and two male per group) were cheek bled by piercing the facial venous plexus with a sterile 4 mm Goldenrod Animal Lancet (Braintree Scientific. Braintree. MA) to gather 100 μL whole blood for baseline immunophenotyping. Immediately following cheek bleeds, each group was given a retro-orbital (r.o.) injection of either a low (100 ng) or high (100 ug) dose of free recombinant mouse (rm) IL-12 (eBiolegend. San Diego. CA) with 0.1% mouse serum albumin (MSA. Sigma. St. Louis, MO) in 150 μL DPBS. At 24 and 48 hours following r.o. injections, mice underwent additional cheek bleeds for immunophenotyping.
Twelve BALB/c mice were cheek bled for 100 μL whole blood (baseline) before being dosed with either 100 ng (L: low dose) or 100 ug (H: high dose) of recombinant mouse (rm) IL-12 via retro-orbital (r.o.) injection. Mice were cheek bled again at 24 and 48 hours (48 h), and blood samples were immunophenotyped via flow cytometry. CD8^−CD4^+ helper T cells (left, white). CD4^−CD8^+ cytotoxic T cells (middle, gray), and CD8^−CD4^+FOXP3^+CD25^+/− regulatory T cells (right. black) were assessed for the extent of PD1^+TIM-3^+ positivity, which can be indicative of exhaustion. Shown in FIG. 17 are T cell data from baseline and 48 h time points. Individual bars (top half) represent group averages+SD. […] Baseline blood samples (n=4:2 male and 2 female per group) were compared to 48 h samples using unpaired two-tailed/tests, * p<0.05, ** p<0.01. *** p<0.001.
Twelve BALB/c mice were cheek bled for 100 μL whole blood (baseline) before being dosed with either 100 ng (L: low dose) or 100 ug (H: high dose) of recombinant mouse (rm) IL-12 via retro-orbital (r.o.) injection. […]

B1: IL-12: Recombinant mouse IL-12 (p70), immunostimulatory cytokine, purchased from Biolegend (protein, UniProt P43431 23-215; P43432 23-335, looked up)
Interleukin-12 subunit alpha: RVIPVSGPARCLSQSRNLLKTTDDMVKTAREKLKHYSCTAEDIDHEDITRDQTSTLKTCLPLELHKNESCLATRETSSTTRGSCLPPQKTSLMMTLCLGSIYEDLKMYQTEFQAINAALQNHNHQQIILDKGMLVAIDELMQSLNHNGETLRQKPPVGEADPYRVKMKLCILLHAFSTRVVTINRVMGYLSSA
Interleukin-12 subunit beta: MWELEKDVYVVEVDWTPDAPGETVNLTCDTPEEDDITWTSDQRHGVIGSGKTLTITVKEFLDAGQYTCHKGGETLSHSHLLLHKKENGIWSTEILKNFKNKTFLKCEAPNYSGRFTCSWLVQRNMDLKFNIKSSSSSPDSRAVTCGMASLSAEKVTLDQRDYEKYSVSCQEDVTCPTAEETLPIELALEARQQNKYENYSTSFFIRDIIKPDPPKNLQMKPLKNSQVEVSWEYPDSWSTPHSYFSLKFFVRIQRKKEKMKETEEGCNQKGAFLVEKTSTEVQCKGGNVCVQAQDRYYNSSCSKWACVPCRVRS
- effect on PMN-MDSC in peripheral blood: Polymorphonuclear-Myeloid-Derived Suppressor Cell (PMN-MDSC) Myelocytosis
- effect on T lymphocyte subsets in peripheral blood (PD1+TIM-3+ positivity): T cell exhaustion of helper, cytotoxic, and regulatory T lymphocyte subsets
- effect on circulating Natural Killer (NK) cells: Decrease of Circulating Natural Killer (NK) Cells
